Data taken from US20240052042A1 (Novartis, published 2024).
Blank lines part the entries; values can stand above or below the binder they belong to.

Experiments:
[1] = biological target: T1, human Natriuretic Peptide Receptor 1 (hNPR1) (human, UniProt P16066 33-473, limits assumed); assay: FabCys affinity (Biacore per paragraph 323)
T1 construct: pannings used NPR1-hFc; also called NPR1-hFc
T1 sequence: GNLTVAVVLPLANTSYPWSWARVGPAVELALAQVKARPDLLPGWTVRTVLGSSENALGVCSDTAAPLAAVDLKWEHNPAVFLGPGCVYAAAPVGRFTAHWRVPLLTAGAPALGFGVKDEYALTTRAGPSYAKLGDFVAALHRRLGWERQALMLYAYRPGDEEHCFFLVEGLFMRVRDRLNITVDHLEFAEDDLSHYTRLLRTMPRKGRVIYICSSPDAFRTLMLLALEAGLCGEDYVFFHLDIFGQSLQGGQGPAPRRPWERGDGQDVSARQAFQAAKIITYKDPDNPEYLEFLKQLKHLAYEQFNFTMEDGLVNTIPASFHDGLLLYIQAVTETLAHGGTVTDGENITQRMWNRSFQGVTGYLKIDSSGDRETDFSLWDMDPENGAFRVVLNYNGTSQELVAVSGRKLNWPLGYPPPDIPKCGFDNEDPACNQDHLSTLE

[2] = biological target: T2, rNPR1-ANP complex (rat, UniProt P01160 124-151 (human entry), limits assumed); assay: FabCys affinity (Biacore per paragraph 323)
T2 construct: rNPR1 antigen in the presence of ANP; also called rNPR1 + 100 nM ANP
T2 sequence: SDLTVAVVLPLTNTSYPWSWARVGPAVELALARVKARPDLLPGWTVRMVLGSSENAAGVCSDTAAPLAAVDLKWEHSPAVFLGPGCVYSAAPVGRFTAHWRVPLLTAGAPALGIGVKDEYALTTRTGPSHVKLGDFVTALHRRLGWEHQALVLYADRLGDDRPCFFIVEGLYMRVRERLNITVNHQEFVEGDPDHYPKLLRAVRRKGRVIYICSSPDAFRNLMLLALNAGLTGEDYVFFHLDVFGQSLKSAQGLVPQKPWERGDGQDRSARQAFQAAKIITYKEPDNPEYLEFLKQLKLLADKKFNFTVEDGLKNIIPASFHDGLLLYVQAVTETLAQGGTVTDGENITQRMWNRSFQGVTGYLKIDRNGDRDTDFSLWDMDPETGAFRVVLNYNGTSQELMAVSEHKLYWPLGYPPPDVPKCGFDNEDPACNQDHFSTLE
T2 sequence (peptide): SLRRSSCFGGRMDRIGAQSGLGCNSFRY

[3] = biological target: T3, rat NPR1 (rNPR1) (rat, UniProt P18910 29-469, limits assumed); assay: FabCys affinity (Biacore per paragraph 323)
T3 construct: Soluble antigen
T3 sequence: T2 sequence

[4] = biological target: T4, hNPR1-ANP complex (human, UniProt P01160 124-151, limits assumed); assay: FabCys affinity (Biacore per paragraph 323)
T4 construct: hNPR1 antigen in the presence of ANP; also called hNPR1 + 100 nM ANP
T4 sequence: T1 sequence
T4 sequence (peptide): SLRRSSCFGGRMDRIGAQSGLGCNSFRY

[5] = biological target: T5, human NPR1 on CHO-K1 cells (human, UniProt P16066 33-1061); assay: cell-based or functional assay
T5 sequence: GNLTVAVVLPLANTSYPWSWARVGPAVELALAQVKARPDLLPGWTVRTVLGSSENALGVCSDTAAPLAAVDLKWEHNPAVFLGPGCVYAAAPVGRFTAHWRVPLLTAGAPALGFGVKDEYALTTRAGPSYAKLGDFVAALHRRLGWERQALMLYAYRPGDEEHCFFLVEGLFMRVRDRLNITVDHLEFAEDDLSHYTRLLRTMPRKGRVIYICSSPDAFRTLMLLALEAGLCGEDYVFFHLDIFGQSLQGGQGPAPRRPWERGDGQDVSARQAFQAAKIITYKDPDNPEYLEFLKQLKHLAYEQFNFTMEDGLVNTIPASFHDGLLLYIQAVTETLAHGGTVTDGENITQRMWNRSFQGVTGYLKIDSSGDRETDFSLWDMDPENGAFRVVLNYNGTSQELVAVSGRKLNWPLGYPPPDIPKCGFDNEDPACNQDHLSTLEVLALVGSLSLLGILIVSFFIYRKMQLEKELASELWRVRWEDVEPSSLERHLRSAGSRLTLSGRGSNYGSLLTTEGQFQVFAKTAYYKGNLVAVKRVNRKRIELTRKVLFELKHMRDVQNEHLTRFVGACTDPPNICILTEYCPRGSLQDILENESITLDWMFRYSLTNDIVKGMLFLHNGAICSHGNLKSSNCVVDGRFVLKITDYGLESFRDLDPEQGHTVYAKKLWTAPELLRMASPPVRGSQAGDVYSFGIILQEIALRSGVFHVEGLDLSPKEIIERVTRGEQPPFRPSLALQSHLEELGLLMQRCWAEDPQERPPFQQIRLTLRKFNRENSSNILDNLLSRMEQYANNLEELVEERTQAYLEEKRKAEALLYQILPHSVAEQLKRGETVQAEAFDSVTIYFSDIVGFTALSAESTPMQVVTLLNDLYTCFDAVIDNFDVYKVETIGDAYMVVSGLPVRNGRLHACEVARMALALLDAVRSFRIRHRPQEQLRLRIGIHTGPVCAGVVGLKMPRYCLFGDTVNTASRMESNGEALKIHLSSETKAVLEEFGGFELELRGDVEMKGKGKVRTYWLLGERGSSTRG

[6] = biological target: T6, human NPR3 (counter target) (human, UniProt P17342 27-481, limits assumed); assay: FabCys affinity determination
T6 construct: Pannings used hNPR3-hFc; also called hNPR3; hNPR3-hFc
T6 sequence (looked up): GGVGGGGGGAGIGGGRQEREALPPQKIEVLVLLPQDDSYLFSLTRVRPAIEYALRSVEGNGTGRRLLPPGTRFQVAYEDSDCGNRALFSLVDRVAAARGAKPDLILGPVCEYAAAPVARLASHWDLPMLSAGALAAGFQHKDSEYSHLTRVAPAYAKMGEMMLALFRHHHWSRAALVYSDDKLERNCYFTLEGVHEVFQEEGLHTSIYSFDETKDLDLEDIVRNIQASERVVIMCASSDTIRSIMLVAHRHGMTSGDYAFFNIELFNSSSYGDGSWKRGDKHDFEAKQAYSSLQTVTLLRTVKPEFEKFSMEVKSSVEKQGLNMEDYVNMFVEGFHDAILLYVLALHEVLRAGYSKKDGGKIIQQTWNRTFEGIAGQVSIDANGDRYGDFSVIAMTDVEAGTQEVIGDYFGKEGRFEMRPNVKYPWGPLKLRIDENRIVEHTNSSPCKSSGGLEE

[7] = biological target: T7, human NPR3 in the presence of ANP (human, UniProt P17342 27-481; P01160 124-151, limits assumed); assay: FabCys affinity determination
T7 construct: also called hNPR3 + 100 nM ANP
T7 sequence (looked up): T6 sequence (looked up)
T7 sequence (peptide, looked up): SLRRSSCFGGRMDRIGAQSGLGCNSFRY

[8] = biological target: T1, human Natriuretic Peptide Receptor 1 …; assay: FabCys, parental value by Biacore, as in Table 5
[9] = biological target: T2, rNPR1-ANP complex; assay: FabCys, parental value by Biacore, as in Table 5
[10] = biological target: T3, rat NPR1 (rNPR1); assay: FabCys, parental value by Biacore, as in Table 5
[11] = biological target: T4, hNPR1-ANP complex; assay: FabCys, parental value by Biacore, as in Table 5
[12] = biological target: T7, human NPR3 in the presence of ANP; assay: ELISA, IgG titrated on coated antigen with ANP (250 fold molar excess), fluorescence [Cont.]
[13] = biological target: T1, human Natriuretic Peptide Receptor 1 …; assay: ELISA, IgG
[14] = biological target: T4, hNPR1-ANP complex; assay: ELISA, IgG
[15] = biological target: T8, human NPR1 on CHO-K1 cells in the presence of ANP (human, UniProt P01160 124-151); assay: flow cytometry, hNPR1 CHO-K1 cells, IgG
T8 construct: also called hNPR1 CHO K1 + 100 nM ANP
T8 sequence: T5 sequence
T8 sequence (peptide): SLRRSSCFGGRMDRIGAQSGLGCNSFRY

[16] = biological target: T6, human NPR3 (counter target); assay: ELISA, IgG titrated on coated antigen, fluorescence [Cont.]

- Kd [1]: 1000 nM
- Kd [2]: 1 nM
- Kd [3]: 2600 nM
- Kd [4]: 0.1 nM
- cGMP conc [nM] at 2 µM FabCys, +0.075 nM ANP [5]: 108 nM
- cGMP conc [nM] at 2 µM FabCys, without ANP [5]: 32 nM
- binding result [6]: no binding
- binding result [7]: no binding
- Kd [8]: 1000 nM
- Kd [9]: 1 nM
- Kd [10]: 2600 nM
- Kd [11]: 0.1 nM
B1: WW03 (FabCys format) (Fab, V domains shown)
VH: QVQLLESGGGLVQPGGSLRLSCAASGFTFSSYWMNWVRQAPGKGLEWVSAISSDGSYTYYADSVKGRFTISRDNSKNTLYLQMNSLRAEDTAVYYCARDRYSMIYSYGAGAFDYWGQGTLVTVSS
VL: DIQMTQSPSSLSASVGDRVTITCRASQGISSYLAWYQQKPGKAPKLLIYTASTLQSGVPSRFSGSGSGTDFTLTISSLQPEDFATYYCMQSYEKPRTFGQGTKVEIK
notes: Monovalent FabCys

- binding result [12]: no binding (tested: 1000 nM)
- EC50 [13]: 42.7 nM
- EC50 [14]: 1.4 nM
- flow cytometry S/BG at 2 µM IgG [15]: 214 S/BG
- binding result [16]: no binding (tested: 1000 nM)
B2: WW03 (IgG format) (antibody, V domains shown)
VH: B1 VH
VL: DIQMTQSPSSLSASVGDRVTITCRASQGISSYLAWYQQKPGKAPKLLIYTASTLQSGVPSRFSGSGSGTDFTLTISSLQPEDFATYYCMQSYEKPRTFGQGTKVEIKR
notes: also called WW03_LALA
